In assay [1] the target is T1, HSA (Sigma Life sciences, A1653) (human, UniProt P02768 25-609).
T1 construct: Printed only as the abbreviation HSA
In words: SPR (Biacore T200), hNGAL immobilized on CM5 chip, analyte in solution. The method, then:
(§1) The reference channels were treated with EDC/NHS following ethanolamine (blank immobilization). Dilutions of Hepcidin-25 (Peptallova), Fe-enterobactin (Genaxxon Bioscience, S4035.0001), ß-defensin (Sigma Aldrich, D9565), VEGF₈₋₁₀₉ (Pieris, truncated VEGF) and HSA (Sigma Life sciences, A1653) in HBS-EP+ buffer (GE Healthcare, BR-1006-69) were applied to the prepared chip surfaces. The following parameters were used for the binding assay: contact time 60 s, dissociation time 600 s, flow rate 30 μL/min. All measurements were performed on a Biacore T200 instrument (GE Healthcare) at 25° C. […] Prior to the protein measurements three startup cycles were performed for conditioning purposes. Data were evaluated with Biacore T200 Evaluation software (V 1.0). Double referencing was used. The 1:1 Binding model was used to fit the raw data. No binding to the reference channel was detected for all of the targets. […] The bacterial siderophor Fe-enterobactin was selected for this analysis as it constitutes one of the natural ligands of the lipocalin that the lipocalin mutein was derived from. […] HSA and VEGF were used as example of non-related proteins. The hNGAL lipocalin, immobilized in an identical fashion on a CM5 chip compared to the lipocalin mutein was used as positive control for the Fe-enterobactin analyte. As described in the literature, the hNGAL lipocalin bound Fe-enterobactin with subnanomolar affinity, whereas none of the other analytes including hepcidin were bound.

Assay [2] concerns the target T2, ß-defensin (Sigma Aldrich, D9565) (UniProt P60022 33-68).
T2 construct: also called mammalian antimicrobial 36 amino acid peptide ß-defensin
T2 peptide (looked up): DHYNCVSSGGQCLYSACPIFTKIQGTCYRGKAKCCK
The description is as above. The method, then: as §1

Assay [3] addresses T3, VEGF8-109 (Pieris, truncated VEGF) (UniProt P15692 214-315).
T3 construct: range 8-109; By custom it is counted on mature VEGF-A, not on the precursor
T3 sequence (looked up): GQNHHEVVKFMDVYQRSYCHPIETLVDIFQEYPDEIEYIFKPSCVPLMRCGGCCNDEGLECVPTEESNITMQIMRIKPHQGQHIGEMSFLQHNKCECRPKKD
The assay is described as above. Here is the method:
as §1

The target in assay [4] is T4, Hepcidin-25 (human).
T4 construct: also called Hepc25; mature form of human hepcidin
T4 peptide: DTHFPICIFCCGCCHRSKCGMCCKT
The description is as above. Here is the method: as §1

The target in assay [5] is T5, Hepcidin-25 containing a C-terminal biotin group (human, C-terminal biotin group).
T5 construct: also called Hepcidin-25-C-bio; biotinylated hepcidin
T5 peptide: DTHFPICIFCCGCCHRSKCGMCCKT
In words: solution competition ECL assay: 25 pM Hepcidin-25-C-bio pre-incubated with the conjugate, remaining free Hepcidin-25-C-bio captured on plate-coated antibody 12B9; STDV 14 pM, mean of n=5. Here is the method:
(§2) The binding affinity of the hNGAL mutein having the sequence of SEQ ID NO: 2 was compared to the binding affinity of the hNGAL mutein having the sequence of SEQ ID NO: 1 linked to PEG12, PEG20, PEG30 or PEG40 in a solution competition electrochemiluminescence (ECL) assay. A defined molar concentration of Hepcidin-25 containing a C-terminal biotin group (25 pM, Hepcidin-25-C-bio) was incubated with different concentrations of the lipocalin muteins for 30 min. at room temperature. The solution was then transferred to an ECL plate coated with the human hepcidin specific monoclonal antibody 12B9 as described herein (and disclosed in WO2008/097461) to measure the remaining concentration of free Hepcidin-25-C-bio in the solution. 12B9-bound Hepcidin-25-C-bio was detected via the Streptavidin sulfotag detection reagent on the Meso-Scale ECL platform and the concentration determined via a Hepcidin-25-C-bio standard curve. […] The assay, for example, was able to distinguish the binding affinity of one lipocalin mutein (SEQ ID NO: 2) from the binding affinity of another lipocalin mutein (SEQ ID NO: 3). Furthermore, it allowed a direct comparison of different high affinities of the lipocalin muteins as well as conjugates having PEG chains of different length.

Assay [6] concerns the target T5, Hepcidin-25 containing a C-terminal …. In words: solution competition ECL assay: 25 pM Hepcidin-25-C-bio pre-incubated with the conjugate, remaining free Hepcidin-25-C-bio captured on plate-coated antibody 12B9; STDV 10 pM, mean of n=5. Here is the method: as §2
The target in assay [7] is T6, Cynomolgus hepcidin 25 (Cynomolgus monkey, UniProt A7XEI3 60-84, not fully specified).
T6 construct: mature; also called Cynomolgous hepcidin 25
T6 peptide: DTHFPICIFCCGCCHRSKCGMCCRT
In words: surface plasmon resonance.

Assay [8] has as its target T4, Hepcidin-25. The assay is described as follows: surface plasmon resonance (Biacore T200, 25 °C), mutein amine-coupled to a CM5 chip, Hepcidin-25 as analyte, 1:1 binding model; N=6.
For assay [9], the target named is T1, HSA (Sigma Life sciences, A1653). In words: SPR (Biacore T200), mutein immobilized on CM5 chip, analyte in solution. The method, then: (§3) The affinity and binding specificity of a lipocalin mutein was determined in a kinetic assay using surface plasmon resonance. The hepcidin-specific lipocalin mutein having the sequence of SEQ ID NO: 1 and the hNGAL lipocalin having the sequence of SEQ ID NO: 4 were immobilized to a level of 750-1100 resonance units (RU) on a CM5 sensor chip (GE Healthcare, BR-1005-30) using an amine coupling kit (GE Healthcare, BR-1000-50). Residual activated groups were saturated with ethanolamine. The reference channels were treated with EDC/NHS following ethanolamine (blank immobilization). Dilutions of Hepcidin-25 (Peptallova), Fe-enterobactin (Genaxxon Bioscience, S4035.0001), ß-defensin (Sigma Aldrich, D9565), VEGF₈₋₁₀₉ (Pieris, truncated VEGF) and HSA (Sigma Life sciences, A1653) in HBS-EP+ buffer (GE Healthcare, BR-1006-69) were applied to the prepared chip surfaces. The following parameters were used for the binding assay: contact time 60 s, dissociation time 600 s, flow rate 30 μL/min. All measurements were performed on a Biacore T200 instrument (GE Healthcare) at 25° C. […] Prior to the protein measurements three startup cycles were performed for conditioning purposes. Data were evaluated with Biacore T200 Evaluation software (V 1.0). Double referencing was used. The 1:1 Binding model was used to fit the raw data. No binding to the reference channel was detected for all of the targets. […] The bacterial siderophor Fe-enterobactin was selected for this analysis as it constitutes one of the natural ligands of the lipocalin that the lipocalin mutein was derived from.

Assay [10] deals with T2, ß-defensin (Sigma Aldrich, D9565). The description is as above. Here is the method: as §3
For assay [11], the target named is T3, VEGF8-109 (Pieris, truncated VEGF). The assay is described as above. Here is the method: as §3
Assay [12] deals with T4, Hepcidin-25. The assay is described as follows: surface plasmon resonance (Biacore), Hepcidin-25 as analyte, tested side by side with cynomolgus hepcidin 25 in the same assay format; N=3.
For assay [13], the target named is T6, Cynomolgus hepcidin 25. The assay is described as follows: surface plasmon resonance (Biacore), cynomolgus hepcidin 25 as analyte, tested side by side with Hepcidin-25 in the same assay format; N=3.
For assay [14], the target named is T5, Hepcidin-25 containing a C-terminal …. The assay is described as follows: solution competition ECL assay: 25 pM Hepcidin-25-C-bio pre-incubated with the conjugate, remaining free Hepcidin-25-C-bio captured on plate-coated antibody 12B9; STDV 6 pM, mean of n=6. The method, then:
as §2

The target is the same in assay [15]. In words: solution competition ECL assay: 25 pM Hepcidin-25-C-bio pre-incubated with the conjugate, remaining free Hepcidin-25-C-bio captured on plate-coated antibody 12B9; STDV 11 pM, mean of n=5. The method, then: as §2
The target is the same in assay [16]. In words: solution competition ECL assay: 25 pM Hepcidin-25-C-bio pre-incubated with the mutein, remaining free Hepcidin-25-C-bio captured on plate-coated antibody 12B9; STDV 23 pM, mean of n=6. Here is the method:
as §2

Where a chain is given by its changes, count along the chain named.

T1 sequence (P02768 25-609): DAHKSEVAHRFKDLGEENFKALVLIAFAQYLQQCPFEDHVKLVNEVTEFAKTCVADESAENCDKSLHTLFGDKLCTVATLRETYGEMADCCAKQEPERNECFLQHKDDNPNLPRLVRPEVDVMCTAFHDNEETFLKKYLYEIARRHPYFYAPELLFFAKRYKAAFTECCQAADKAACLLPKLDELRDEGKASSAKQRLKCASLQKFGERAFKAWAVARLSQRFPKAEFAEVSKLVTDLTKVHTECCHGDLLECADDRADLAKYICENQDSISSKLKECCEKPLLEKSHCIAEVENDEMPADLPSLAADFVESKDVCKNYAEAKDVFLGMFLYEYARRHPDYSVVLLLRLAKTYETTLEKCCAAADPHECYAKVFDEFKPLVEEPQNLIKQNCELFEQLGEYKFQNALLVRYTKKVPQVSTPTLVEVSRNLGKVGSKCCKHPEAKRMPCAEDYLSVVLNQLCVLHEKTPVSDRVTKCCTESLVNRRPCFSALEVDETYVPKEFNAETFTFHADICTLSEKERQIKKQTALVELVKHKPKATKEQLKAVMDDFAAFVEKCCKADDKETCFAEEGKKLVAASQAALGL

B1: hNGAL lipocalin having the sequence of SEQ ID NO: 4 (other)
chain: QDSTSDLIPAPPLSKVPLQQNFQDNQFHGKWYVVGLAGNAILREDKDPQKMYATIYELKEDKSYNVTSVLFRKKKCDYWIRTFVPGSQPGEFTLGNIKSYPGLTSYLVRVVSTNYNQHAMVFFKKVSQNREYFKITLYGRTKELTSELKENFIRFSKSLGLPENHIVFPVPIDQCIDG
notes: also called human neutrophil gelatinase-associated lipocalin; lipocalin 2
Turning to B1, the binding result (in assay [1]; in assay [2]; in assay [3]; with Hepcidin-25 [4]) was “no binding” throughout.

B2: hNGAL mutein having the sequence of SEQ ID NO: 1 linked to PEG12 (designed binder)
chain: QDSTSDLIPAPPLSKVPLQQNFQDNQFHGKWYVVGLAGNEVLREDKDPMKMWATIYELKEDKSYNVTIVMPLAEKCEYLFQTFVPGCQPGEFTLGGIKSGPGRTSGLVRVVSTNYNQHAMVFFKVVWQNREVFWVTLYGRTKELTSELKENFIRFSKSLGLPENHIVFPVPIDQCIDG
modifications: linear PEG12 (PEG-maleimide) on the free Cys at position 87
notes: also called PEG12 conjugate
In turn, B2 returned an IC50 in assay [5] of 48 pM.

B3: hNGAL mutein having the sequence of SEQ ID NO: 1 linked to PEG40 (designed binder)
chain: B2 chain
modifications: branched PEG40 (PEG-maleimide) on the free Cys at position 87
notes: also called PEG40 conjugate
Consider B3, for which, in assay [6], the IC50 came to 54 pM. In the assay with Cynomolgus hepcidin 25 [7], this molecule showed a Kd of 66 pM, a koff of 0.000245 s⁻¹ and a kon of 3.74e+06 M⁻¹ s⁻¹.

B4: hepcidin-specific lipocalin mutein (hNGAL mutein) having the sequence of SEQ ID NO: 1 (designed binder)
chain: B2 chain
notes: also called the lipocalin mutein; hNGAL mutein having a free cysteine residue at amino acid position 87
Turning to B4, the values for the Kd with Hepcidin-25 [8], with Hepcidin-25 [12] and with Cynomolgus hepcidin 25 [13] were 70 pM, 100 pM and 70 pM, respectively. For the same molecule, in the assay with Hepcidin-25 [8], the off-rate constant (koff) came to 0.0002 s⁻¹. In the assay with Hepcidin-25 [8], this molecule showed a kon of 3.8e+06 M⁻¹ s⁻¹. For the same molecule, the binding result in assay [9], in assay [10] and in [11] was “no binding” throughout.

B5: hNGAL mutein having the sequence of SEQ ID NO: 1 linked to PEG30 (designed binder)
chain: B2 chain
modifications: linear PEG30 (PEG-maleimide) on the free Cys at position 87
notes: also called PEG30 conjugate; lipocalin-mutein-PEG30 conjugate
Take B5: the IC50 in [14] was found to be 58 pM. The molecule also gave a Kd with Cynomolgus hepcidin 25 [7] of 66 pM.

B6: hNGAL mutein having the sequence of SEQ ID NO: 1 linked to PEG20 (designed binder)
chain: B2 chain
modifications: linear PEG20 (PEG-maleimide) on the free Cys at position 87
notes: also called PEG20 conjugate
In the case of B6, the IC50 in assay [15] was 47 pM.

B7: hNGAL mutein having the sequence of SEQ ID NO: 2 (designed binder)
chain: B2 chain with C87S
notes: Non-PEGylated mutein with serine at position 87
For the molecule B7, the IC50 in [16] came out at 56 pM.

Values taken from patent publication US20180311311A1 (Pieris, published 2018).
